No end group written: not given here.
How the values were obtained:
GPCR142 [1] = molecular target: T1, GPCR142 (Homo sapiens, UniProt Q8TDU9, L329S); assay: Radioligand binding assay with 125I-relaxin3 (saturation and competition), COS-7 cell membranes; set-up: The complete coding region of human GPCR142 was PCR-amplified from human genomic DNA; expressed in transfected cells; settings: competition binding, COS-7 membranes
Experimental: The binding mixtures were incubated at room temperature for 1 h and then were filtered through 96-well GFC plates (Packard) and washed with ice-cold washing buffer: 50 mM Tris-HCl, pH 7.4. Fifty microliters of Microscint-40 were added to each well and the plates were counted in a Topcounter NTX (Packard). The radioligand binding results were analyzed using GraphPad PRISM software.
The binding assays were performed at room temperature for an incubation time of one hour. The binding mixtures were then filtered through GFC filters pre-saturated with 0.3 polyethylenimine (Sigma) and washed with cold binding buffer. The bound radioligand was counted in a top counter (TopCount/NTX, Packard) with Microscint-40. The results were analyzed by Prism 3.0 software.

GPCR142 [2] = molecular target: T1, GPCR142; assay: GTPγS binding assay, GPCR142 expressing cell membranes; type: biochemical; set-up: The complete coding region of human GPCR142 was PCR-amplified from human genomic DNA; expressed in transfected cells; CHO membranes (GTPγS); HEK293 co-transfected with Gα16 (Ca2+)
Experimental: The GPCR142 expression vector described above was transfected into CHO cells using Lipofectamine (Invitrogen) according to the manufacturer's instructions. Two days after transfection, the cells were harvested and the cell membranes were prepared by homogenizing the cells in cold 50 mM Tris-HCl, 5 mM EDTA, pH 7.5 followed by centrifugation at 4° C. 1000 g for 10 min. The supernatant was centrifuged at 4° C. 20,000 g for 30 min and the pellet was re-suspended in GTPγS binding buffer: 50 mM Tris-HCl, pH 7.4, 10 mM MgCl2, 1 mM EDTA, pH 8.0, and 100 mM NaCl using a polytron tissue homogenizer. Protease inhibitors were added to the buffer at concentrations of 1 mM PMSF, 10 μg/ml of pepstatin A, 10 μg/ml of leupeptin. Cell membranes and different concentrations of ligands were added to 96-well plates and incubated at room temperature for 20 min. ^35S-GTPγS (NEN) was then added to each well at a final concentration of […] in a final volume of 200 μL. The reactions were allowed to proceed at room temperature for 1 h, and then the mixtures were filtered though a 96-well GFC filter plate (Packard) and washed with cold washing buffer: 50 mM Tris-HCl, pH 7.4, 10 mM MgCl2. Fifty microliters of Microscint-40 (Packard) was added to each well and the plate was counted on a top counter (TopCount NTX, Packard).

GPCR142 [3] = molecular target: T1, GPCR142; assay: Inhibition of forskolin-stimulated cAMP (CRE-β-galactosidase) in SK-N-MC cells; type: cell-based; set-up: The complete coding region of human GPCR142 was PCR-amplified from human genomic DNA; expressed in transfected cells; HEK293 co-transfected with Gqi5 (Ca2+); settings: SK-N-MC cells stably expressing GPCR142
Experimental: SK-N-MC cells stably expressing GPCR142 were established by transfection of GPCR142 expressing plasmids into SK-N-MC cells harboring a β-galactosidase gene under control of multiple cAMP responsive elements. The stable transfectants were selected by culturing the transfected cells under G418 selection (400 mg/L). The receptor expressing cells were seeded in 96-well plates at a cell density of 30,000 cells/well. After 24 h, cells were stimulated with forskolin or different peptides. Cells were cultured for an additional 6 h and the intracellular β-gal activity, which represents the intracellular cAMP accumulation, was measured as described by Liu et al. (2000), Mol. Pharmacol., 59, 420-426.

GPCR142 [4] = molecular target: T1, GPCR142; assay: Ca2+ mobilization assay (FLIPR), HEK293 cells co-expressing GPCR142 and Gα16; type: cell-based; set-up: The complete coding region of human GPCR142 was PCR-amplified from human genomic DNA; expressed in transfected cells; HEK293 co-transfected with Gα16 (Ca2+)
Experimental: Human embryonic kidney (HEK) 293 cells were transfected with GPCR135,.GPCR142 or co-transfected with Gqi5 (Conklin et al. (1993), Nature 363, 274-280) or Gα16 (Amatruda et al. (1991), Proc. Natl. Acad. Sci. U.S.A. 88, 5587-5591) expressing plasmids using LipofectAmine. Two days after transfection, cells were detached with PBS plus 10 mM EDTA. The detached cells were washed with DMEM-F12 medium (without phenol red, Invitrogen) and seeded in black poly-D lysine coated 96-well plates (BD Biosciences, San Jose, Calif.) at a cell density of 50,000 cell/well.

human GPCR142 [5] = molecular target: T2, human GPCR142 (human, UniProt Q8TDU9 1-374); assay: competition binding with ^125I-relaxin3, membranes of COS-7 cells expressing GPCR142
T2 construct: Expressed in COS-7, CHO, SK-N-MC or HEK293 cells
T2 sequence (Q8TDU9 whole entry L329S): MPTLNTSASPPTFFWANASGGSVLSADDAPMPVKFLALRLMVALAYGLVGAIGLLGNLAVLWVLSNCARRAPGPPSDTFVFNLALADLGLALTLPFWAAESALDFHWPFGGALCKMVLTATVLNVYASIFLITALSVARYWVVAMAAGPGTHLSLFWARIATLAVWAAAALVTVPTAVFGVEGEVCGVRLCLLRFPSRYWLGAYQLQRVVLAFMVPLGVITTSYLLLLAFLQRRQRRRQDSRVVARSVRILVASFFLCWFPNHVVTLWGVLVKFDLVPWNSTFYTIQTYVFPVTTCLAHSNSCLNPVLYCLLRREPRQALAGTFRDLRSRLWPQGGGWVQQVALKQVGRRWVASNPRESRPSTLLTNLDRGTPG
Experimental: (§1) The binding mixtures were incubated at room temperature for 1 h and then were filtered through 96-well GFC plates (Packard) and washed with ice-cold washing buffer: 50 mM Tris-HCl, pH 7.4. Fifty microliters of Microscint-40 were added to each well and the plates were counted in a Topcounter NTX (Packard).

human GPCR142 [6] = molecular target: T2, human GPCR142; assay: competition binding with ^125I-relaxin3, membranes of COS-7 cells transiently expressing GPCR142
Experimental: as §1

human GPCR142 [7] = molecular target: T2, human GPCR142; assay: cell-based or functional assay
human GPCR142 [8] = molecular target: T2, human GPCR142; assay: saturation radioligand binding, membranes of COS-7 cells transiently expressing GPCR142
Experimental: as §1

T1 sequence (Q8TDU9 whole entry L329S): as above

## CC[C@H](C)[C@@H]1NC(=O)[C@H](Cc2ccccc2)NC(=O)[C@H](CCC(=O)O)NC(=O)[C@H](CCCNC(=N)N)NC(=O)CNC(=O)[C@@H](NC(=O)[C@H](CC(C)C)NC(=O)[C@H](CCCNC(=N)N)NC(=O)[C@@H](NC(=O)CNC(=O)[C@H](Cc2ccc(O)cc2)NC(=O)[C@@H]2CCCN2C(=O)[C@H](C)NC(=O)[C@H](C)NC(=O)[C@@H](N)CCCNC(=N)N)C(C)C)CSSC[C@@H](C(=O)NCC(=O)NCC(=O)N[C@@H](CO)C(=O)N[C@@H](CCCNC(=N)N)C(=O)N[C@@H](Cc2c[nH]c3ccccc23)C(=O)O)NC(=O)[C@H]([C@@H](C)O)NC(=O)[C@H](Cc2ccccc2)NC(=O)[C@H]([C@@H](C)CC)NC(=O)[C@H](C(C)C)NC(=O)[C@H](C)NC(=O)[C@H](CCCNC(=N)N)NC1=O [relaxin3 B-chain, reference compound]
GPCR142 [1]
  displacement of 125I-relaxin3 binding to GPCR142: displaced
GPCR142 [2]
  stimulation of 35S-GTPγS binding (agonist activity): stimulate
GPCR142 [3]
  inhibition of forskolin induced β-galactosidase expression: showed ligand activity, albeit with a significantly lower potency

## INSL5: Human INSL5 (SEQ ID NO: 5), recombinantly expressed in COS-7 cells, relaxin/insulin superfamily peptide (KESVRLCGLEYIRTVIYICASSRWQDLQTLCCTDGCSMTDLSALC; ends and bridges not checked; cysteine pairing not given here; listed as Homo sapiens)
GPCR142 [1]
  displacement of 125I-relaxin3 binding to GPCR142: specifically displaced
GPCR142 [4]
  stimulation of Ca2+ mobilization: stimulated Ca2+ mobilization
GPCR142 [2]
  stimulation of 35S-GTPγS binding (agonist activity): stimulated GTPγS binding
GPCR142 [3]
  inhibition of forskolin induced β-galactosidase expression: dose-dependently inhibits

B1: relaxin3 A-chain (peptide, UniProt Q8WXF3 119-142, looked up)
peptide: DVLAGLSSSCCKWGCSKSEISSLC
modifications: ends and bridges not checked; also: oxidized
notes: domain: A-chain; Bought peptide; also called oxidized relaxin-3 A-chain peptide
Human GPCR142 [5]
  binding result: no binding

B2: Human INSL4 (ligand)
chain 1: AELRGCGPRFGKHLLSYCPMPEKTFTTTPGGWL
chain 2: SGRHRFDPFCCEVICDDGTSVKLCT
Human GPCR142 [5]
  binding result: no binding

B3: relaxin3 B-chain (peptide, UniProt Q8WXF3 26-52, looked up)
peptide: RAAPYGVRLCGREFIRAVIFTCGGSRW
modifications: not fully specified (bridges); ends and bridges not checked; also: oxidized
notes: domain: B-chain; Bought peptide; also called oxidized relaxin-3 B-chain peptide
Human GPCR142 [6]
  Ki: 85 nM
Human GPCR142 [7]
  EC50, GTPγS binding assay: ~100 nM

B4: ^125I-relaxin3 (ligand)
chain 1: RAAPYGVRLCGREFIRAVIFTCGGSRW
chain 2: DVLAGLSSSCCKWGCSKSEISSLC
modifications: ends and bridges not checked; also: 125I label, residue not given here
notes: also called radioligand; tracer
Human GPCR142 [8]
  Kd: 1.9 nM

B5: Porcine relaxin (ligand)
chain 1: QSTNDFIKACGRELVRLWVEICGSVSWGRTAL
chain 2: RMTLSEKCCQVGCIRKDIARLC
notes: The results paragraph prints only 'relaxin'
Human GPCR142 [5]
  binding result: no binding

From patent publication US20050059089A1 (priority 2003, published 2005)
